Source: patent US7151087

Substrate: CC chemokine receptor 5 (CCR5), clone 8.5 cDNA, stably expressed on HEK 293 cells (human), P51681
Assay: homologous competition against ^125I-RANTES on CCR5.1 cells, 37° C.
Details: remark: other sources report otherwise

Sequence of CC chemokine receptor 5 (CCR5), clone 8.5 cDNA, stably expressed on HEK 293 cells (human), P51681 (P51681 whole entry): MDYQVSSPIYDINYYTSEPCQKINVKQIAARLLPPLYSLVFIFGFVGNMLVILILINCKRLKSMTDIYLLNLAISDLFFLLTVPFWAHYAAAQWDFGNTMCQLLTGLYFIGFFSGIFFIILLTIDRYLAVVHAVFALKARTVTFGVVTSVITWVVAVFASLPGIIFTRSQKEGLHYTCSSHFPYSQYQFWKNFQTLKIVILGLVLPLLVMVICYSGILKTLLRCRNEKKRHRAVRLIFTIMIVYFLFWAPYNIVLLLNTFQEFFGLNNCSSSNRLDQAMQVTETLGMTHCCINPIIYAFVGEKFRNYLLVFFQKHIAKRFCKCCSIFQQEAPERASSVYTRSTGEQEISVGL

IC50: 80 nM
B1: RANTES, P13501 24-91 (ligand, human, UniProt P13501 24-91, looked up)
chain: SPYSSDTTPCCFAYIARPLPRAHIKEYFYTSGKCSNPAVVFVTRKNRQVCANPEKKWVREYINSLEMS
